Results as given in a protein production outcome set (Wang et al. 2014).

Test: label from the status in PepcDB records

Sequence	protein production
NKELNELNIIKLTRMMYYGQLLHYLSIGLTLVMTYSCNLRCPYCYEGDIKSKGGLLTREKIETILTFASAHAQGDKKPTISVSFYGGEPLLNWKGCEYTLQRLEEMKENKEIRDYSAGFVTNGTLINEDIVDAINNYNVYSMQITLDGPKEIHDKRRIKSNGEGTFDQIIENIKLLNRRIANKNFHLALRINVDKTNYKKIPELLDFLKDEGLGGIPISYGIVRGNLPYCSSNCGVYFSGSDLQKYLPYLWKEAYRRGFEVWTRPNL	failed
NLMKRCTRGFRKLGKCTTLEEEKCKTLYPRGQCTCSDSKMNTHSCDCKSC	not failed
NQLSGLHSMEEQLAKKLQIKKCLVVQGDSDDTPWVREEMGRVAVEQLDMALTEKRNIVAVMGGSTMATVAEMMTTDFAKGRELLFVPGRGGIGEDLDNQANTICDKMATKTNTKHRVLYVPEQLGEEAYRSLLKEPAIQEGLRLVQSANAIILGIGDALAMAKRRHTGEDVLEKIIRRKAVGEAFGYYFDEQGEVVHKVPTFGLQFEDLAQIPHIIAVAGGTSKAKAIKSYMKSAPKNTILITDEGAAKSLLK	not failed
NSVNCDELGPLPPGWEVRSTVSGRIYFVDHNNRTTQFTDPRLHHIMNHQCQLKEPSQPLPLPS	failed
PAGVMIADAASGKLVLTNEQAKQILRYQFEDSLELKEYAPVTPFAAFRCDGQPYDPYEYPLPRSLLTGEVISQEEMLLRWEDNSHIFISVNSAPILDSQGQIAAAAIVFQDVTERKHLESELQQREQEFKMVAENAP	failed
PAKWKRGRPDILHVALLTTTDSPLYNEGLLRIYFQVYDGRLFEVGTGVRVPKNYERFRGLVAQLLKTERVPPGEGEALIRLHSRSLAEFVEREGRFILMWEKGSPTTTTYVAARALSTGLPIGVGCFPRGEFKRSTLRKASEAYSIMGGAPLKTWGVASRIVYALER	failed
PCYENKFAPRCARCSKTLTQGGVTYRDQPWHRECLVCTGCQTPLAGQQFTSRDEDPYCVACFGELFA	not failed
PDAARKAQILWCQPDRAKAWTDWMRKGKFPVGGSICDNPVAETTSLGEQFGFNGTPTLVFPNGRSQSGYSPMPQLEEIIRKNQ	not failed
PDTIIAVDRDHRIIYVNRAMPGHKKTLAVGDHLCDHIMQPYHDRYHHTIERVIVTGKTAVLECELVVSPEETIELESRFAPCFLNGEVTSVVMLSVDITERKGMELELKKTLIDLERFNRVMVGRELRNIELKKRIASLQNDLVLSSGNAQASDDSRQDFATEDEDCAGIHHGDGFEEACDEVQYRKQQRMALLNLIEDANLARNELLETNRKLEESVIRTQEMARAASKANEAKSQFLANMSHEVRTPMNGVIGMSDLLLDTS	failed
PEQIWAKQQKDGSWLMDALIPLNELKYKLGLTTIEGEESEGFQTLNGFLTWWLGRLPHAGELVDYEGWQFEVLNVKHHRIVQVKVSRET	failed
PFKESQARGLLQDNMANGYNGEDFESGLLELSKEIFPTNKYLYQDGQYLDKKTINAYLDPKYTKKEIDKMSEKEKKSKNANENLGLNPSHNGETDEEKIAKNSPAYLSNILEQDFYGNSDSKGKNIKGMTIGLAMNSVYYYKKEKDGETFSKDLSDKEIEKQGKQMASEMLSRLRENSDLKDIPIHFAIYKQSSQDSITPGEFIVGTTVEEGKTKINSWDNINEKAALIPSSTAADYDETLNNNFKQFNDNLQSYFSNFTQAVGKVKFVNKKAKQLTVDLPIDYYGQAETIGITQYVTEQAEKYFDKLDEYEIRIKDGNTPRALISKTKDDKEPQVHIYHN	not failed
PGQVIGLFGGSFDPPHAGHVHVTREALKMFGLDRVWWLVTPGNPLKAHGPAPLDRRMEAARAMMRHPRVDVTDIEAHLGTRVTADTIAALRRIYPRVRFVWLMGADNLAQLHRWKDWRQIIETVPVGVLARPGDRISARMSPAARAYAPYRIDGQARHLLGRAEAPAWCFVNVPMVDVSSTRIRAAGGWSAAQQGR	failed
PINVRVTTMDAELEFAIQPNTTGKQLFDQVVKTVGLREVWFFGLQYVDSKGYSTWLKLNKKVTQQDVKKENPLQFKFRAK	failed
PKQRCRAPACDHFGNAKCNGYCNECFQFKQMYG	not failed
PLADTRFLQRRRALSAQLAAKRIDAMLVTHLTHIRYLSGFTGSNAALIINKDLSARISTDGRYITQIAEQVPDIESLMARNCAPALLSDINGPKRVGFEADYLSVSQCEELRKSAGSDVELIPVTGAIEKLR	not failed
PLTTHNMNSSTSNKVALNAAREGIVLLKNQGDLLPLDKQKVKKIAVVGTLAKYAPPTGFGSANVMASHYVSELSGLQQMAPNAKVEFIDGLSLDPSTSAWNTTDAAGNSVQGMKVEYFSNTNWSGDAAVTRTEQHVDLDWANDKNLPFESNTSTSDPYTTKGSTAGELNGDTSSTSIRYTGKITPTQSGEQVFKVRADGAVRLWVNGKKIIDNGDGKPLPGNSIPPTIPEFAKINLEAGQSYDVKLEYSRRAGYLSTMGGLVGVQLSSASLNAPQDLSGYDAVVVAVGNSNEYEGEGFDHSFDLPEFQNELIQNIAKVNPNTVVTMYGGTGLKMSDWIEQVPVALHAFYPGQNGGQALAEILFGKINPSGKLPISIERNIEDNPAYASFPKFDNQNTLAEMDYKDDLMLGYRGYEKKGIKPLYPFGYGL	failed
PNFEKMKKEVEEILYNLKKEGGKYHCILAFSGGKDSVLALKLLKEKFKLNPLCVMVDNKYMAKEAIENALNVTKHYQVDLMILNRDYTDLFEDAIKRGESPCRRCSRLILREVWRVTKLLGLKYIITGHELP	not failed
PNFSHWGPPRIVEIFREPNVSLGISIVGGQTVIKRLKNGEELKGIFIKQVLEDSPAGKTNALKTGDKILEVSGVDLQNASHSEAVEAIKNAGNPVVFIVQSLSSTPRVIP	not failed

Sequence	protein production
PNILYKIDNQYPYFTKNEKKIAQFILNYPHKVVNMTSQEIANQLETSSTSIIRLSKKVTPGGFNELKTRLSKFLPKEVTQYNVELVDNESTISLKNKLHSRSKAAL	not failed
PRLYKEPSAKSNKFIIHNALSHCCLAGKVNEPQKNRILEEIEKSKANHFLILFRDSSCQFRALYTLSGETEELSRLAGYGPRTVTPAMVEGIYKYNSDRKRFTQIPAKTMSMSVDAFTIQGHLWQSKK	not failed
PRRWPILLIFPGSGFIQMTEREAEPIALAFSAQGYQTMVVEYNLLDRGPVYPNAIDVGLTALKYAKNQGPPHYGDANKTILMGFSAGSHVAALTNAMGNNTEYLKTHGFGDSPLTSRLQVLGYPVIDLAAGFPKSREEAFKISPDEQYWASQNLVTDQTPPTFLWNTCADAVVPTMNSLLYAEALARHHVEYDIHTFTHGKHGLCLSTVETSRYNYPEDIEPRAANWVPLVLSWLSEMLD	failed
PSKKYVVDIWSDFVCPWCWIAKRRFENALNRSGMQDDVQVNVRAYRLAANQAPEPMIGALKRKLGNPASADSMMSTVSKYGRADGLDYRFDTMMFGDTADAHILVKAVEDTAVKKRLVEALYEQSTSHGRSLFDRSSLEAIAREVGVSDESIQLAWSSVELRNEMKDDESFAAQLGSGVPLFVFDSSFSVSGAQPDAVFLEALNKMVANSNPE	not failed
PSVQVPQSTILYASDGSKLGETNYGEKRYWVPLKDMNPTIVKATVAIEDQNFYDHHGFDYKRMAGAALADLKAFAKVQGASTITQQYARNLYLEHDKTWKRKWNEAFYTIRLEQNYSKDEILEGYLNTIYYGHGAYGIEAASRLYFGKHAKNLTDAEAALLAGIPKGPSGY	failed
QAQITGRPEWIWLALGTALMGLGTLYFLVKGMGVSDPDAKKFYAITTLVPAIAFTMYLSMLLGYGLTMVPFGGEQNPIYWARYADWLFTTPLLLLDLALLVDADQGTILALVGADGIMIGTGLVGALTKVYSYRFVWWAISTAAMLYILYVLFFGFTSKAESMRPEVASTFKVLRNVTVVLWSAYPVVWLIGSEGAGIVPLNIETLLFMVLDVSAKVGFGLILLRSRAIFGEAEAPEPSAGDGAAATS	not failed
QEYILALADVPSSPYGVKIIELSQTTAKVSFNKPDSHGGVPIHHYQVDVKEVASEIWKIVRSHGVQTMVVLNNLEPNTTYEIRVAAVNGKGQGDYSKIEIFQTLPV	not failed
QGKLLELVTFVPTEYADAVRQALWQAGAGRLGHYDCCSFSHAGTGTFRAAEGANPFVGAISELHHEAEERISLVLPAYRQGTVLQALHAAHPYELPAVSLIPLANDHPSAGGGIVGDLPSPISEREMLLHIKEVFGLKVLSHSAWRERPLRRMAICGGSGAFMWRRAAQEGADLFLTGEAKYNDFFDAGEHLLLVTIGHYESEEVANELFMRIISQKFPTFATHKSSVATNPVNYL	failed
QGYQVTKLYVMDRDGTNARLLTEGFDRDVQNPTFTADGEHIVFRYVDEGSTKIGRVALDGGRRVVAEHVGGTSIGRPYTSGSFSLASNGRVAFTHATPQRPADVAVAQAGREAQVLTALNDDLFGQVDLGSVEQITYESSHDGRTIEGWIVTPPGFDASQEYPLVLEIHGGPFASYGPYFSAEVQLYAAAGYVVLYTNPRGSTSYGQDFGNAIHHDYPGHDYDDLMSGVDAVLERGYVDADRLYVTGGSGGGVLTSWIVGHTDRFRAAVAAKPVINWYSWALTADMYPYGVKYWFPGLPWNHEEHYMDRSPLSYVDNVTTPTMLLTGANDYRTPMSESEQFYQALKLREVETALVRVPGASHSIAARPSHLAAKAAHVLEWFRRHGGPTPEQ	failed
QIPAERDREPSKLKRSYSSPDITQAIQEEEKRKPTVTPTVNRENKPTCYPKAEISRLSASQIRNLNPVFGGSGPALTGLRNLGNTCYMNSILQCLCNAPHLADYFNRNCYQDDINRSNLLGHKGEVAEEFGIIMKALWTGQYRYISPKDFKITIGKINDQFAGYSQQDSQELLLFLMDGLHEDLNKADN	failed
QISTPVIRVWDGILALPIIGTLDSSRTQVVMESLLQEIVDTGSSIAILDISGVPAVDSLVAQHLIKTVSATRLMGAECIISGIRPEIAQTVVHLGIDLSTIITKATLASALKTA	failed
QKRPLIMIGGSSSTRTDFDDIVRSLNEQQHHPLITLTVKANQKLAFKEKRVENTNLNDALIVIFFEDSTDSTENIMTQTNGLAKAIRYLQRHQHLTTANALGYSNGGLIWSRYLAGLSSSKPLAVHDLMLIGTPFLGTDAAH	failed
QLGGDMKTIAIADRTGEYEQLFKENDEFRFVHAEKTAEEYRKMGADKSGIDAVLEIRQDLLEDPNAVAIYGYKQLPASVSNHISRILSDYLSDKKIASYNIPDIKQILADSKIELSVHTYKWSEDGTNERTSGELASGIS	not failed
QLIDIGVNLTNSSFHDQQAAIVERALEAGVTQMLLTGTSLAVSEQALELCQQLDASGAHLFATAGVHPHDAKAWDTDSERQLRLLLSEPRVRAVGECGLDFNRDFSPRPLQEKALEAQLTLAAQLRLPVFLHERDASERLLAILKDYRDHLTGAVVHCFTGEREALFAYLDLDLHIGITGWICDERRGTHLHPLVGNIPEGRLMLESDAPYLLPRSLRPKPKSGRNEPAFLPEVLREVALHRGESAEHTAAHTTATARDFFQLP	not failed
QQAIADQLLEMILQSQDLHNAYRLVVEGLQRGLGVDRVLLVQNAVFPNRQSRLVAQAIAPARDIMLLDEPCADCRWLHLLGQLPHYGLWTVWEGEGEFVQLDPVQGEFCRTLGIKSLLHLPLVINQRHWGVLSLQYLHQARPWPLEDQQFAQRIAHLFCLGLMKTELWIHCQNHKNALQTVVAEGQ	failed
QQNIVLSIQDRLQQLPKSERKIAEYILKNTETVISMNAQELAKQAGSSPAAIIRFCHSMDVNGFTELKLLLSANLGQMKQQMYTEVTKGESTADIKQKLQARFVHVVERSGQTLE	not failed
QRLSNSIINSLASGEGVVEALRTMKNDGVISGMFKLEQGKFNRSIENLVRTEYSHFAVEGVRKSLKDIGVKQTQSWSAEDERVCSICGGRHGKEIKDDWHPPYHGRCRCTEI	failed
